Series [1] deals with Full length His-CopD (Chlamydia pneumoniae CWL029) (UniProt Q9Z798). Briefly: SEC; co-expressed and Ni-NTA purified His-CopD and LcrH_1-S-tag (300 µL, 4.5 mg/mL), Superdex S200 10/300 GL, PBS + 0.03% LDAO, 0.5 mL/min; fractions blotted with anti-His and anti-S-tag; sizes from column standards. (In gel filtration, larger molecules generally elute earlier.)
Series [2] concerns the molecule itself. The series is described as above.

Values joined by “and” are separate entries in the source; they are usually repeats but may differ in a detail not shown here. Equal values may be shown once.

With LcrH_1-S-tag (natural protein), the stoichiometry N (LcrH 1 per CopD) in series [1] was found to be 1.

B1: Full length His-CopD (natural protein)
chain: MTSGVSGSSSQDPTLAAQLAQSSQKAGNAQSGHDTKNVTKQGAQAEVAAGGFEDLIQDASAQSTGKKEATSSTTKSSKGEKSEKSGKSKSSTSVASASETATAQAVQGPKGLRQNNYDSPSLPTPEAQTINGIVLKKGMGTLALLGLVMTLMANAAGESWKASFQSQNQAIRSQVESAPAIGEAIKRQANHQASATEAQAKQSLISGIVNIVGFTVSVGAGIFSAAKGATSALKSASFAKETGASAAGGAASKALTSASSSVQQTMASTAKAATTAASSAGSAATKAAANLTDDMAAAASKMASDGASKASGGLFGEVLNKPNWSEKVSRGMNVVKTQGARVASFAGNALSSSMQMSQLMHGLTAAVEGLSAGQTGIEVAHHQRLAGQAEAQAEVLKQMSSVYGQQAGQAGQLQEQAMQSFNTALQTLQNIADSQTQTTSAIFN
notes: CopD (Cpn0808), Chlamydia pneumoniae CWL029, 444 amino acids (44.5 kDa); Eluted from SEC as decamer, tetramer and monomer; also called Cpn0808; source: E. coli Rosetta pLysS, co-expressed with LcrH_1-S-tag (pET-DUET), purified (Ni-NTA); not shown: 6×His, N-terminal, kept
In the case of B1, the stoichiometry N (in general, a count of units in the complex or per binding partner) in series [2] is 10 and 4.

The values are drawn from PMC4068993, “Chlamydia pneumoniae CopD Translocator Protein Plays a Critical Role in Type III Secretion (T3S) and Infection” (PLoS ONE, 2014).
